Measurements reported in patent publication US20210380678A1 (SURROZEN OPERATING, published 2021).
Positions count from the first letter of the chain named.

B1: LP1-6H3 (antibody, V domains shown)
VH: QAYLQQSGAELVRPGASVKMSCKASGYTFSRFDMHWVKQTPRQGLEWIGVIYPGNGDTSYNQKFRDKASLTVDKSSSTAYMQLSSLTSEDSAVYFCASSYYGNPWGQGTTLTVSS
VL: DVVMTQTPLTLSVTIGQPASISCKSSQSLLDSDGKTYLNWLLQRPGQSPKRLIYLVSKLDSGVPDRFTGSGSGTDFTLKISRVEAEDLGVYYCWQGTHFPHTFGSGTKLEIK
notes: Hybridoma antibody as screened
B2: LP1-1P5 (antibody, V domains shown)
VH: QVQLQQSGPELVRPGTSVKISCKASGYTFLTYWMNWVKQRPGQGLEWIGQIFPATGITYYSEMFKDKATLTEDTSSTTAYMQLSSLTSEATAVYFCARRRAYHSNFFDYWGQGTTLTVSS
VL: DIVMTQSQKFMSTSVGDRVSVTCKASQNVGTNVAWYQQKPGQSPKALIYSASYRYSGVPDRFTGSGSGTDFTLTISNVQSEDLAEYFCQQYNSYPLTFGAGTKLELK
notes: as for B1
B3: LP1-3A24 (antibody, V domains shown)
VH: EVQLQQSGPELVKPGASVKMSCKASGYTFTDYYINWVRQSHGKSLEWIGRVIPSNGGSNYNQKFKGKATLTVDKSLSTAYMHLNSLTSEDSAVYYCATQLGRWGQGTLVTVSA
VL: B2 VL with T31S, Y36F, A51S, S76T, Y94F
notes: as for B1
B4: LP1-8M24 (antibody, V domains shown)
VH: QVQLQQSGAELARPGASVKLSCKASGYTFTNYGINWVKQRTGQGLEWIGEIFPRSDNTFYNEKFKGKATLTADKSSTTAYMELRSLTSEDSAVYFCARKGRDYGTSHYFDYWGQGTTLTVSS
VL: DIQMTQSPASLSVSVGETVTITCRISENIYSNLAWYQQKQGKSPHLLVYAAINLADGVPSRFSGSGSGTQFSLKINSLQSEDFGSYYCQHFWGTPFTFGSGTKLEIK
notes: as for B1
B5: LP1-2E12 (antibody, V domains shown)
VH: DVQLQESGPGLVKPSQSLSLTCSVTGYSITSGYYWNWIRQFPGNKLEWMGSIGYDDTNHYNPSLKNRISITRDTSKNQFFLKLNSVTTEDTATYYCAGDYPFAFWGQGTLVTVSA
VL: DVVVTQTPLSLPVSFGDRVSISCRSSQSLANSYGNTYLSWYLHKPGQSPQLLIYGISNRFSGVPDRFSGSGSGTDFTLKISTIKPEDLGMYYCLQGTHQPLTFGAGTKLELK
notes: as for B1
B6: LP1-9C3 (antibody, V domains shown)
VH: QVTLKESGPGILQPSQTLSLTCSFSGFSLSTSYMGVSWIRKPSGKGLEWLAHIFWDDDKRYNPSLKSRLTISKDTSSNQVFLMITSVETADTATYYCGGPYYPFTYWGQGTLVTVSA
VL: B5 VL with R18Q, M90I, G96A, L101W, A105G, L111I
notes: as for B1
B7: LP1-2I13 (antibody, V domains shown)
VH: EVQLVESGGGLVKPGGSRKLSCAASGFTFSDYGMHWVRQAPEKGLEWVAYISSGSSTIYYADTVKGRFTISRDNAKNTLFLQMTSLRSEDTAMYYCSRKGGFGDYEKSYAMDYWGQGTSVTVSS
VL: DIQMTQSPASLSASVGETVTITCRASENIYSYLVWYQQKQGKSPQLLVYNAKTLAEGVPSRFSGSGSGTQFSLKINSLQPEDFGSYYCQHHYGTWTFGGGIKLEIK
notes: as for B1
B8: LP1-1N15 (antibody, V domains shown)
VH: EVQLQQSGPELVKPGASVKMSCKASGYTFTDYYMNWVKQSHGESLEWIGRVIPSNGGTNYNQKFKGKATLTVDKSLTTAYMQLNSLTSEDSAVYFCARGMDYWGPGTSVTVSS
VL: DIKMTQSPSSMYASLGERVTITCKASQDINSHLSWFQQKPGKSPKTLIIRANRLVDGVPSRFSGSGSGQDYSLTISSPEYEEMGIYYCLQYDEFPFTFGGGTKLEIK
notes: as for B1
B9: LP1-9M16 (antibody, V domains shown)
VH: EVQLQQSGPELVKPGASVKMSCKASGYTFTDYYMNWVKQSHGKSLEWIGRVNPNNGGSNYNQKFKGKATLTVDKSLSTAYMQLNSLTSEDSAVYYCASRNFDVWGAGTTVTVSS
VL: B8 VL with H32Y, I49Y, V55A, S77N, P78L, E82D, F96L, G100A, I106L
notes: as for B1
B10: LP1-7I20 (antibody, V domains shown)
VH: EVKLVESGGGLVQPGGSLSLSCAASGFTFTDYYMSWVRQPPGKALEWLALIRNKANGYTTEYSASVKGRFTISRDNSQSILYLQMNALRAEDSATYYCAVTYGAYWGQGTLVTVSA
VL: DIQMTQSPASLSASVGETVTITCRTSENIYSYLAWYQQKQGKSPQLLVYNAKTLAKGVPSRFSGSGSGTQFSLKINGLQPEDFGNYYCQHHYGTPYTFGGGTKVEIK
notes: as for B1
B11: LP1-3E20 (antibody, V domains shown)
VH: QVQLQQSGAELAKPGASVKMSCKASGYTFTSYWIHWVKQRPGQGLEWIGYINPSSGYAEYNQKFKVRATLTADKSSSTAYMQLSSLTSEDSAVYYCARESYYSFDYTMDYWGQGTSVTVSS
VL: DIKMTQSPSSMYASLGERVTITCKASQDINSYLSWFQQKPGKSPKTLIYRANRLVDGVPSRFSGSGSGQDYSLTISSLEYEDMGIYYCLQYDDLWTFGGGTKLEIK
notes: as for B1
B12: LP1-7B13 (antibody, V domains shown)
VH: EVQLQQSGPEVVKPGASVKMSCKTSGFTFTDYYMNWVKQGHGKSLEWIGRVNPSNDDTRYNQKFKGKATLTVDKSLSTAYMQLNSLTSEDSAVYYCTRWFYFDYWGQGTTLTVSS
VL: DIVLTQSPATLSVTPGDRVSLSCRASQSISNYLHWYQQKSHESPRLLIKFASQSISGIPSRFSGSGSGTDFTLTINSVETEDFGMYFCQQSNSWPLTFGAGTKLELK
notes: as for B1
B13: LP1-1P13 (antibody, V domains shown)
VH: EVQLQQSGPELVKPGASVKISCKASGYSFTDYFMNWVKQSHGKSLEWIGRFNPFNGQTFYNQEFKGKATLTVDKSSSTAHMELRSLTSEDSAVYYCARRGRYDVYYVLDYWGQGTSVTVSS
VL: DIQMTQSPASLSASVGQTVIITCRTSENIYSNLAWYQQKQGKSPQLLVYAATNLADGVPSRFSGSGSGTQYYLKINSLQSEDFGSYYCQHFWGSTWTFGGGTKLDIK
notes: as for B1
B14: LP1-2I22 (antibody, V domains shown)
VH: B13 VH with D31G, S77D, V107A
VL: B13 VL with Q17E, T25A, A50G, P59T, Y71F, Y72S, N76D, S94T, D105E
notes: as for B1
B15: LP1-10C22 (antibody, V domains shown)
VH: EVQLVESGGDLVKPGGSLKLSCAASGFTFSSYGMSWVRQTPDKRLEWVASISSGGSYTYYPDSVKGRFTISRDNAQNTLYLQMSSLKSEDTAMYYCVRHEEYGKSGFAYWGQGTLITVSA
VL: DVLMTQTPLSLPVSLGDQASISCRSSQGIVHSNGNIYLEWYLQKPGQSPKLLIYKVSNRFSGVPDRFSGSGSGTDFTLKISRVEAEDLGVYYCFQGSHVPPTFGGGTKLEIK
notes: as for B1

Biological target: T1, human ASGR1 extracellular domain (hASGR1 ECD) (human, UniProt P07306 62-291, biotinylated (His-Avi tag))
T1 construct: His-Avi tag at the N-terminus, biotinylated for BLI; also called human ASGR1 ECD
T1 sequence: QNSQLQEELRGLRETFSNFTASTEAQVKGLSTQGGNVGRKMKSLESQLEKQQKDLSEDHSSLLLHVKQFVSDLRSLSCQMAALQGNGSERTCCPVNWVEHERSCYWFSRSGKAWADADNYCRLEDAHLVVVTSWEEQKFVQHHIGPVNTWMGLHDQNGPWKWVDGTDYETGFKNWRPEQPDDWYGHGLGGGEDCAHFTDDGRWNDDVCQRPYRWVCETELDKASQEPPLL
Experiment: hybridoma screening on recombinant ECD

Binding result, binds:
B1, B2, B3, B4, B5, B6, B7, B8, B9, B10, B11, B12, B13, B14, B15

Biological target: T2, cynomolgus ASGR1 extracellular domain (cynoASGR1 ECD) (cynomolgus, UniProt P07306 62-291 (human entry))
T2 construct: Cloned with a His/Avi tag
T2 chain: T1 sequence with S3A, E7R, F16L, T91A
Experiment: hybridoma screening on recombinant ECD

Binding result, binds:
B1, B2, B3, B4, B5, B6, B7, B8, B9, B10, B11, B12, B13, B14, B15
